Consider two molecules from US20200277376A1 (SUZHOU STAINWEI BIOTECH, published 2020).

Test [1] concerns the target recombination human PD-1 extracellular protein (Sino Biological Inc.) (human) (UniProt Q15116). Nature of the test: competitive ELISA, plate coated with human PD-1 protein; competitor biotin-hAb21.
The target of test [2] is T1, human PD-1 on cells (CHO cells stably expressing human PD-1) (human, UniProt Q15116 25-288).
T1 construct: whole, on cells; also called CHO/PD-1; CHO-PD-1
The experiment in a line: flow cytometry on CHO/PD-1 cells. A general note: Flow cytometry measures light scatter and fluorescence of single cells or particles in a stream.

Chain of recombination human PD-1 extracellular protein (Sino Biological Inc.) (human) (Q15116 25-170): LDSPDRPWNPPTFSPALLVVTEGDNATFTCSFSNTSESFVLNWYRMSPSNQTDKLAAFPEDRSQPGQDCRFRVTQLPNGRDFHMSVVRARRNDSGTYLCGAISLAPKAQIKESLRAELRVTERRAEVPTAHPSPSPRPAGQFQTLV
T1 sequence (Q15116 25-288): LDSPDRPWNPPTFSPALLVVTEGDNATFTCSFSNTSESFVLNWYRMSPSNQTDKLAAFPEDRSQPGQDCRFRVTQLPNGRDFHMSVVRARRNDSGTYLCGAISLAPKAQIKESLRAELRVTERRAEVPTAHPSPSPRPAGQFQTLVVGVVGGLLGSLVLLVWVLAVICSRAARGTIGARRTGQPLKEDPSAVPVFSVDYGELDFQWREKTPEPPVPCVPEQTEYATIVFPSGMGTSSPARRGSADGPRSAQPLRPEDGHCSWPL

For “MK3475+Nivo (Nivolumab and MK3475 added together)”, in test [1], the antagonizing/inhibiting ratio is 70%.

B1: human PDL2-Fc fusion protein (Fc fusion, UniProt Q9BQ51 20-219, looked up, not shown: a dimerising Fc or GST)
chain: LFTVTVPKELYIIEHGSNVTLECNFDTGSHVNLGAITASLQKVENDTSPHRERATLLEEQLPLGKASFHIPQVQVRDEGQYQCIIIYGVAWDYKYLTLKVKASYRKINTHILKVPETDEVELTCQATGYPLAEVSWPNVSVPANTSHSRTPEGLYQVTSVLRLKPPPGRNFSCVFWNTHVRELTLASIDLQSQMEPRTHP
notes: also called biotin-PDL2-Fc; Biotin-PDL2Fc
On to B1, for which, in test [2], the binding result is reported as “binds”.
